This note sets out measurements from PMC9048828, “The Acetyltransferase RibT From Bacillus subtilis Affects in vivo Dynamics of the Multimeric Heavy Riboflavin Synthase Complex” (Frontiers in Microbiology, 2022).

The data set concerns the molecule itself. The experiment in a line: pull-down + SEC; coproduced in E. coli BL21 Star, purified by Strep-Tactin affinity chromatography followed by SEC; pooled 60-mer peak (~1 MDa) analysed by SDS-PAGE.

B1: Strep-RibH (enzyme, Bacillus subtilis, UniProt P11998 1-154, looked up)
chain: MNIIQGNLVGTGLKIGIVVGRFNDFITSKLLSGAEDALLRHGVDTNDIDVAWVPGAFEIPFAAKKMAETKKYDAIITLGTVIRGATTHYDYVCNEAAKGIAQAANTTGVPVIFGIVTTENIEQAIERAGTKAGNKGVDCAVSAIEMANLNRSFE
notes: RibH, lumazine synthase of Bacillus subtilis; printed mass of Strep-RibH 17.9 kDa; Cloning and purification are described in the Supplementary Data; The printed mass fits the whole protein with its tag (surmised); also called wt-like Strep-RibH; source: E. coli BL21 (DE3) Star, purified (Strep-Tactin, SEC); also coproduced with His6-RibE; not shown: Strep tag, N-terminal, kept; copies: 60
On to B1, for which the “stoichiometry N” value is 60.

B2: Strep-RibH^K29E (enzyme, Bacillus subtilis, UniProt P11998 1-154, looked up)
chain: MNIIQGNLVGTGLKIGIVVGRFNDFITSELLSGAEDALLRHGVDTNDIDVAWVPGAFEIPFAAKKMAETKKYDAIITLGTVIRGATTHYDYVCNEAAKGIAQAANTTGVPVIFGIVTTENIEQAIERAGTKAGNKGVDCAVSAIEMANLNRSFE
notes: RibH, lumazine synthase of Bacillus subtilis, with K29E; printed mass 17.9 kDa; Cloning and purification are described in the Supplementary Data; source: E. coli BL21 (DE3) Star, purified (Strep-Tactin, SEC); also coproduced with His6-RibE; not shown: Strep tag, N-terminal, kept; copies: 60
For B2, the “stoichiometry N” value was 60.

B3: Strep-RibH^K29R (enzyme, Bacillus subtilis, UniProt P11998 1-154, looked up)
chain: MNIIQGNLVGTGLKIGIVVGRFNDFITSRLLSGAEDALLRHGVDTNDIDVAWVPGAFEIPFAAKKMAETKKYDAIITLGTVIRGATTHYDYVCNEAAKGIAQAANTTGVPVIFGIVTTENIEQAIERAGTKAGNKGVDCAVSAIEMANLNRSFE
notes: RibH, lumazine synthase of Bacillus subtilis, with K29R; printed mass 17.9 kDa; Cloning and purification are described in the Supplementary Data; the tag is likely N-terminal as in Strep-RibH (surmised); source: E. coli BL21 (DE3) Star, purified (Strep-Tactin, SEC); also coproduced with His6-RibE; copies: 60
Take B3: the “stoichiometry N” value was found to be 60.
